A short description of the data set: amyloid nucleation score (Sup35N fusion, yeast selection) (log enrichment); library NNK3; higher = more nucleation; inactive = no reads after selection. The gist of the method:
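Sup35N was fused to peptides of 20 random codons and expressed in psi-negative yeast, which were induced with 100 μM copper sulfate for 24 hours and then grown on medium lacking adenine and uracil for 7 days at 30°C. Plasmid inserts from input and output were sequenced on Illumina. The nucleation score is the DiMSum log enrichment of output over input reads, centred on the mode score of non-aggregating sequences. Sequences with under 100 input reads were left out, and random libraries had three technical output replicates.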

Data on 132 substances can be found in the supplement of paper PMC12042874.

± gives the uncertainty stated by the source.

On to FKLVGCGCNVMTFVSYLVNQ, for which the amyloid nucleation score was found to be 1.98 ± 0.083.

As to LLLNMM, the amyloid nucleation score entry is “inactive”.

On to LLTVEVPLWKIFDAML, for which the amyloid nucleation score result is “inactive”.

For YVKPDDDAQVKVGWGQFSVG, the amyloid nucleation score result is “inactive”.

In the case of MICSLTSHRKRN, the amyloid nucleation score result was “inactive”.

On to IITPELYGKLRLHH, for which the amyloid nucleation score entry was “inactive”.

Turning to HRELRVTVHQKFNLRMRVSD, the amyloid nucleation score entry is “inactive”.

As to GNRLALVYLGRILPL, the amyloid nucleation score result is “inactive”.

Regarding YEIFSVSLR, the amyloid nucleation score is -0.221 ± 0.9.

On to VPVRSSYMTEMYVCSGISPR, for which the amyloid nucleation score result is “inactive”.

On to CLSSSETPFSGDRTMA, for which the amyloid nucleation score was -0.046 ± 0.52.

In the case of VVCIHLVVDTVC, the amyloid nucleation score result is “inactive”.

With AGNGPLSIYPMILMWMRVGR, the amyloid nucleation score result was “inactive”.

On to RCFRTLIRENMKLANTSDMT, for which the amyloid nucleation score entry is “inactive”.

Consider DGGCSKIVRQTLWLNPLGNS, for which the amyloid nucleation score result was “inactive”.

With VSWLCSMKDICPHCDEINYR, the amyloid nucleation score amounted to 1.8 ± 0.062.

On to DADTW, for which the amyloid nucleation score result is “inactive”.

For FFGPLPRTAIYQHILCTRNG, the amyloid nucleation score came to 0.665 ± 0.14.

For LVEIIHVSLVFLP, the amyloid nucleation score entry is “inactive”.

For the substance NWGVYCVRDLWYRHSDMYHR, the amyloid nucleation score result is “inactive”.

Take SFLFA: the amyloid nucleation score result is “inactive”.

Take RLHIVETLSYLNACWPDFSG: the amyloid nucleation score entry was “inactive”.

In the case of NLFLGCQN, the amyloid nucleation score result is “inactive”.

LSRLFLSRVGHVIYTKSSVD: the amyloid nucleation score entry was “inactive”.

Consider RYSEWPAD, for which the amyloid nucleation score entry is “inactive”.

Take LFFYFLEPR: the amyloid nucleation score result was “inactive”.

For the substance TISFGMMHLAIDWVIVN, the amyloid nucleation score result was “inactive”.

In the case of YVRIWSFMNYAVMVSITLIV, the amyloid nucleation score result was “inactive”.

For the substance NYGQALHWLLRGGSMWSQGT, the amyloid nucleation score result is “inactive”.

Regarding NAYSKNVFQHVGMHTWSWYL, the amyloid nucleation score result was “inactive”.

Regarding TYFILKETATDLN, the amyloid nucleation score entry is “inactive”.

As for STIAGPFLKFARSGTCPPVP, the amyloid nucleation score was -0.776 ± 1.8.

In the case of FTYWLFSLDR, the amyloid nucleation score result was “inactive”.

Take AEVPSFECFTVPVFLRSIAV: the amyloid nucleation score result was “inactive”.

Consider GSKDYQPSYIPWYNFACFKG, for which the amyloid nucleation score is -0.594 ± 0.96.

With FCYLPRALCEVLNRCLLNSL, the amyloid nucleation score result is “inactive”.

GIHHFF: the amyloid nucleation score entry was “inactive”.

The substance MMFVGYLSCFSS registered an amyloid nucleation score of 2.38 ± 0.059.

As to TIIFRSYVELVDELWLDAAL, the amyloid nucleation score result was “inactive”.

Turning to SVYGIYGSNYMNTFVVVLVG, the amyloid nucleation score entry is “inactive”.

In the case of PVNGAVYTKGLTSWLRFIVV, the amyloid nucleation score is -0.178 ± 0.82.

Turning to RVLATFCG, the amyloid nucleation score entry is “inactive”.

As to RISINGFNNLNYLLS, the amyloid nucleation score is 1.39 ± 0.1.

Regarding YNSSYFYMMCPFLSSFSPFS, the amyloid nucleation score was 2.81 ± 0.067.

In the case of RTFPNTWHAMIFGCVNKPNC, the amyloid nucleation score entry is “inactive”.

For CLGGQRHDVLPVCCWEFIME, the amyloid nucleation score entry is “inactive”.

For LCRSGIFKSYWNITMFFKFL, the amyloid nucleation score result is “inactive”.

On to NLAAEASVLVYEDELGCRHG, for which the amyloid nucleation score result is “inactive”.

Turning to LFTDPCCTIGMSFRV, the amyloid nucleation score amounted to 1.08 ± 0.075.

On to YRPFWSA, for which the amyloid nucleation score entry was “inactive”.

For RLVAVVRCYVLCGKIWGKST, the amyloid nucleation score was -0.484 ± 0.89.

Regarding SWRDILVKRHS, the amyloid nucleation score result was “inactive”.

Take PPTLQMVTVVGPKGWKVMFS: the amyloid nucleation score result was “inactive”.

Take TVYSGWCTREVRICEPMNRG: the amyloid nucleation score result is “inactive”.

With LYEGD, the amyloid nucleation score entry is “inactive”.

As for NKSYNDRARYVARGRDI, the amyloid nucleation score entry is “inactive”.

In the case of QCLIYLYVFVLPVLEFGMDR, the amyloid nucleation score result is “inactive”.

In the case of CSFIGYHGFVCLSVDIVLGC, the amyloid nucleation score turned out to be 1.51 ± 0.12.

Turning to SVQFFPDCCQGELTTNTVRS, the amyloid nucleation score result is “inactive”.

Substance HSLWRLGYYM came in with an amyloid nucleation score of 0.912 ± 0.15.

With YTDSLVLPHGHMIGRVQSFY, the amyloid nucleation score result is “inactive”.

LIACNVPVVEVRTSIGVKDI: the amyloid nucleation score result is “inactive”.

Turning to RNYDFSKGITVSWRLLHA, the amyloid nucleation score entry was “inactive”.

Consider GHIYCYSVKE, for which the amyloid nucleation score entry was “inactive”.

Consider YSMVFHTWCMRVMRGVFIWM, for which the amyloid nucleation score entry was “inactive”.

Turning to AHRCFFHLSRHVRKYAIRQR, the amyloid nucleation score entry is “inactive”.

Turning to LGRLVG, the amyloid nucleation score entry is “inactive”.

For HWFRTGDMGVDFTVEACDWL, the amyloid nucleation score result was “inactive”.

On to TFAFYLTILMSMFDRYFTWP, for which the amyloid nucleation score entry is “inactive”.

As for FRTTLKTR, the amyloid nucleation score result is “inactive”.

With DLVMDFQ, the amyloid nucleation score entry is “inactive”.

Turning to NMKSCFHRMDPHWGTGFHSL, the amyloid nucleation score result is “inactive”.

Take QVNFGRGQRTLVWTGIRCSH: the amyloid nucleation score entry is “inactive”.

Consider GDERGLLMYVPG, for which the amyloid nucleation score entry was “inactive”.

On to VAKVNCTW, for which the amyloid nucleation score was -0.431 ± 0.9.

As to RKYSVG, the amyloid nucleation score entry was “inactive”.

With YICVMWMYSCKLSLPMWHPR, the amyloid nucleation score result is “inactive”.

Turning to YETYKYLYGFVML, the amyloid nucleation score entry was “inactive”.

In turn, VNYHFYKFYGPWRVWNRTRA had an amyloid nucleation score of 1.95 ± 0.086.

With CEFWNKYSNLWIWGWL, the amyloid nucleation score came to 0.51 ± 0.31.

IDSLSAIGKSWTQGESRSDR: the amyloid nucleation score result was “inactive”.

Consider YLTNNLFRFLEYR, for which the amyloid nucleation score result was “inactive”.

Turning to HWSHNLQFIFFYSYVGLANE, the amyloid nucleation score came to 1.96 ± 0.077.

For VLGPGIIRTEQVLTVVRTMA, the amyloid nucleation score result was “inactive”.

Take RHSILVSYFHWWFRDWKPFW: the amyloid nucleation score result was “inactive”.

As for MMRSVHFFRCRQTHENLLMC, the amyloid nucleation score was -0.207 ± 0.66.

For the substance RVKQQLNLP, the amyloid nucleation score result was “inactive”.

Take YSGLGSIVTNGYSYIYGEVL: the amyloid nucleation score entry is “inactive”.

As for DGNFNQRYAHLDRSGCWL, the amyloid nucleation score result was “inactive”.

Regarding ARLFKGYSVVLCLCVSHR, the amyloid nucleation score result was “inactive”.

In the case of WIPHPEFGVSIGIV, the amyloid nucleation score entry was “inactive”.

As for SISPFN, the amyloid nucleation score entry is “inactive”.

Regarding KFLPGCCFYMRIMSQVSLKN, the amyloid nucleation score result was “inactive”.

For LNVLAPFGWLARFIILAIP, the amyloid nucleation score result is “inactive”.

Consider CVSSLIAKMGIVGCDGCYKG, for which the amyloid nucleation score entry is “inactive”.

Take KGALRFITYSSMLVYYLNLG: the amyloid nucleation score entry is “inactive”.

Regarding ILSILMCLQETNTDYNSMNR, the amyloid nucleation score result is “inactive”.

Turning to FYYYLCYDIVAISVLMNLPY, the amyloid nucleation score result was “inactive”.

Turning to GDITSEYV, the amyloid nucleation score result is “inactive”.

For the substance ELRLHNFTFRLVASFWLLRV, the amyloid nucleation score entry was “inactive”.

Take MRSLGSAMWR: the amyloid nucleation score entry was “inactive”.

As for YRFTRKDSPSSKVKMISNSW, the amyloid nucleation score entry is “inactive”.

SIRKHFPIRNMDELHSARN: the amyloid nucleation score entry is “inactive”.

For the substance SQNAQESIPMRKFITPSRVF, the amyloid nucleation score result was “inactive”.

In the case of IVSCLSCHLCLKCYSPLCVL, the amyloid nucleation score is 0.851 ± 0.12.

GMFCNGINTNYVPVYYYRSV displayed an amyloid nucleation score of 1.27 ± 0.17.

On to MGGVCMSMS, for which the amyloid nucleation score result was “inactive”.

On to IKVEATRSAVASLRLHI, for which the amyloid nucleation score entry is “inactive”.

Regarding AVQHIVEFILICQMFTYTHH, the amyloid nucleation score result is “inactive”.

Consider LDFRLFGFPDKNEHYGGEYK, for which the amyloid nucleation score result is “inactive”.

The substance YYNTYCTVDIYYLNPCVNLQ yielded an amyloid nucleation score of 3.01 ± 0.056.

On to YVSCK, for which the amyloid nucleation score result is “inactive”.

For MSIYLQSTM, the amyloid nucleation score entry is “inactive”.

For the substance TVTFYNCIVGCVSNWVSVQG, the amyloid nucleation score worked out at 1.77 ± 0.068.

In the case of KNLGIG, the amyloid nucleation score entry is “inactive”.

Regarding DYNDCIKISIFLLYSPLIWC, the amyloid nucleation score was determined as 1.79 ± 0.1.

Regarding SCGSDKSLFDDCIKPRSRHC, the amyloid nucleation score entry is “inactive”.

As for LFELDKLNRVHLNGVMGVII, the amyloid nucleation score entry is “inactive”.

MKVLYDKVKSVTASIELWFW: the amyloid nucleation score entry is “inactive”.

For SVGVWKYFDLWAAGFLSSSG, the amyloid nucleation score result was “inactive”.

Turning to IIGKRTSMVAITLFDINGSS, the amyloid nucleation score entry was “inactive”.

As for SNRIYHVVFID, the amyloid nucleation score was determined as 1.89 ± 0.1.

Take VLLQKGTETECGLAIVQLKW: the amyloid nucleation score result was “inactive”.

In the case of YFLRREQLYNLRKGK, the amyloid nucleation score entry is “inactive”.

In turn, GRIGTVGWGISLHYVYTDRA displayed an amyloid nucleation score of 0.547 ± 0.2.

With NGMAFGSRVNRLGGCSEVEV, the amyloid nucleation score entry is “inactive”.

For the substance LQHWPRTFWMGSRYAYLFSL, the amyloid nucleation score entry was “inactive”.

Take FILLGRNGLG: the amyloid nucleation score entry was “inactive”.

Turning to VGKFSHACLRIN, the amyloid nucleation score result is “inactive”.

For SVESACFTSSWVNHFFTFSN, the amyloid nucleation score result is “inactive”.

KSQYTSASP: the amyloid nucleation score result is “inactive”.

Regarding VSACIWRKLPVFVYSVSAGS, the amyloid nucleation score entry was “inactive”.
